Test results taken from US20120316071A1 (published 2012).

B1: Fab VH1-46_IGHD6-6*01_IGHJ1*01 S102A/S103P/S104F (APF) & L6_IGKJ1*01 (Fab, V domains shown)
VH: QVQLVQSGAEVKKPGASVKVSCKASGYTFTSYYMHWVRQAPGQGLEWMGIINPSGGSTSYAQKFQGRVTMTRDTSTSTVYMELSSLRSEDTAVYYCAREEYAPFSAEYFQHWGQGTLVTVSS
VL: not shown
notes: Tested as a Fab made in E. coli; also called H:APF & L:wt; APF triple mutant
B2: Fab VH5-51_IGHD5-18*01>3_IGHJ4*01 G100K/G104T & V3-4_IGLJ1*01 (Fab, V domains shown)
VH: EVQLVQSGAEVKKPGESLKISCKGSGYSFTSYWIGWVRQMPGKGLEWMGIIYPGDSDTRYSPSFQGQVTISADKSISTAYLQWSSLKASDTAMYYCARRKYSYTYDYFDYWGQGTLVTVSS
VL: QTVVTQEPSFSVSPGGTVTLTCGLSSGSVSTSYYPSWYQQTPGQAPRTLIYSTNTRSSGVPDRFSGSILGNKAALTITGAQADDESDYYCVLYMGSGISYVFGTGTKVTVL
notes: Tested as a Fab; The constant parts are the same as for the parent Fab (CH1 with His6/Flag tags, lambda CL); also called KT double mutant; H:KT

Columns and labels:
[1] = biological target: T1, rHuman IGF-1 sR, CF (R&D Systems Cat#391-GR) (human, UniProt P08069 31-932); experiment: ECL Multispot (MSD) assay, antigen spotted on plate, 10 nM Fab; blank spot of this row 344
T1 construct: Bought soluble receptor; The column head prints only 'IGF-1'; also called insulin-like growth factor-1 soluble receptor

[2] = biological target: T2, rHuman P-Cadherin/Fc Chimera, CF (R&D Systems Cat#861-PC) (human, UniProt P22223 108-654); experiment: as above
T2 construct: Bought reagent; Fc part of the bought chimera not given

[3] = biological target: T3, rHuman Erythropoietin R/Fc Chimera, CF (R&D Systems Cat#963-ER) (human, UniProt P19235 25-250); experiment: as above
T3 construct: Bought reagent; also called EPO R; EPO R/Fc; Fc part of the bought chimera not given
T3 sequence (looked up): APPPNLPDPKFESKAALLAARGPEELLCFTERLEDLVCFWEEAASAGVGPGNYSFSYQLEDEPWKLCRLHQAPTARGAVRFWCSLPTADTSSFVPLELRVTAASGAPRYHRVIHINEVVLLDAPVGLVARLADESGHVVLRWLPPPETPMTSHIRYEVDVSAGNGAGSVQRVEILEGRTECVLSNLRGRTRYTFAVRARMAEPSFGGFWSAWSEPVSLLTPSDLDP

[4] = biological target: T4, rHuman ErbB2/Fc Chimera, CF (R&D Systems Cat#1129-ER) (human, UniProt P04626 23-652); experiment: as above
T4 construct: Bought reagent; also called human epidermal growth factor 2 receptor; Fc part of the bought chimera not given

[5] = biological target: T5, rHuman EGF R/Fc Chimera, CF (R&D Systems Cat#344-ER) (human, UniProt P00533 25-645); experiment: as above
T5 construct: Bought reagent; also called epidermal growth factor receptor; Fc part of the bought chimera not given

[6] = biological target: T6, rHuman HGF R/c-MET/Fc Chimera, CF (R&D Systems Cat#358-MT/CF) (human, UniProt P08581 25-932); experiment: as above
T6 construct: Bought reagent; also called HGF R/Fc; hepatocyte growth factor receptor; Fc part of the bought chimera not given

[7] = biological target: T7, rHuman Notch-1/Fc Chimera, CF (R&D Systems Cat#3647-TK) (human, UniProt P46531 19-526); experiment: as above
T7 construct: Bought reagent; Fc part of the bought chimera not given

[8] = biological target: T8, rHuman CD44/Fc Chimera, CF (R&D Systems Cat#3660-CD) (human, UniProt P16070 21-220); experiment: as above
T8 construct: Bought reagent; Fc part of the bought chimera not given

[9] = biological target: T1, rHuman IGF-1 sR, CF (R&D Systems …); experiment: ECL Multispot (MSD) assay, antigen spotted on plate, 10 nM Fab; blank spot of this row 487
[10] = biological target: T2, rHuman P-Cadherin/Fc Chimera, CF (R&D …); experiment: as above
[11] = biological target: T3, rHuman Erythropoietin R/Fc Chimera, CF …; experiment: as above
[12] = biological target: T4, rHuman ErbB2/Fc Chimera, CF (R&D …); experiment: as above
[13] = biological target: T5, rHuman EGF R/Fc Chimera, CF (R&D …); experiment: as above
[14] = biological target: T6, rHuman HGF R/c-MET/Fc Chimera, CF (R&D …); experiment: as above
[15] = biological target: T7, rHuman Notch-1/Fc Chimera, CF (R&D …); experiment: as above
[16] = biological target: T8, rHuman CD44/Fc Chimera, CF (R&D Systems …); experiment: as above
[17] = biological target: T9, rHuman Erythropoietin R/Fc Chimera, CF (R&D Systems Cat#963-ER) (human, UniProt P19235 25-250); experiment: ECL multispot (MSD) assay, spotted antigen; Fab 20.00 (head prints uM)
T9 construct: Bought recombinant protein; also called EPO R; EPO R/Fc; Fc part of the bought chimera not given
T9 sequence (looked up): T3 sequence (looked up)

[18] = biological target: T10, rHuman HGF R/c-MET/Fc Chimera, CF (R&D Systems Cat#358-MT/CF) (human, UniProt P08581 25-932); experiment: as above
T10 construct: Bought recombinant protein; also called HGF R/Fc; Fc part of the bought chimera not given

[19] = biological target: T11, rHuman IGF-1 sR, CF (R&D Systems Cat#391-GR) (human, UniProt P08069 31-932); experiment: as above
T11 construct: Bought soluble receptor; The column head prints only 'IGF-1'; also called insulin-like growth factor-1 soluble receptor

| Binder | ECL signal [1] | ECL signal [2] | ECL signal [3] | ECL signal [4] | ECL signal [5] | ECL signal [6] | ECL signal [7] | ECL signal [8] | ECL signal [9] | ECL signal [10] | ECL signal [11] | ECL signal [12] | ECL signal [13] | ECL signal [14] | ECL signal [15] | ECL signal [16] | ECL signal/noise ratio [17] | ECL signal/noise ratio [18] | ECL signal/noise ratio [19] |
| --- | --- | --- | --- | --- | --- | --- | --- | --- | --- | --- | --- | --- | --- | --- | --- | --- | --- | --- | --- |
| B1 | 293 | 293 | 389 | 356 | 371 | 434 | 363 | 417 | 453 | 384 | 326 | 381 | 206 | 379 | 450 | 363 |  |  |  |
| B2 |  |  |  |  |  |  |  |  |  |  |  |  |  |  |  |  | 1.1 | 0.9 | 1.1 |
